Measured values from patent publication US20250011418A1 (ZIELBIO, published 2025).

T1: Sec8-His (section 8 (Sec8), an antigenic region of CSP-1, tagged with a polyhistidine (His) tag)
T1 construct: also called Sec8-His antigen
T1 chain: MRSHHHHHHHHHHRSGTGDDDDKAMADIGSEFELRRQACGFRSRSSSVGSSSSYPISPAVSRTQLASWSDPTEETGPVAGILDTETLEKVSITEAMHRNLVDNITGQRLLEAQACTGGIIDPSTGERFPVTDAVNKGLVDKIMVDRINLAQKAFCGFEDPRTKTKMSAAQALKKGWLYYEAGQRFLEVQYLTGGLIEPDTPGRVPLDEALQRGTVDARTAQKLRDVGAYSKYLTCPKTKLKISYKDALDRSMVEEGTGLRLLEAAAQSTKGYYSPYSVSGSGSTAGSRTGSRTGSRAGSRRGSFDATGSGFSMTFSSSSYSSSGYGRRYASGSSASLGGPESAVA

B1: humanized anti-CSP-1 antibody, Antibody Number 22 (Table 1) (antibody, human IgG1, V domains shown)
VH: EVQLVESGGDLVKPGGSLKLSCAASGFTFSRYGMSWVRQTPDKRLEWVATISIGGTYTYYPDSMKGRFTISRDNAKNTLYLQMSSLKSEDTAMYYCARRGYGNYSYYGMDYWGQGTSVTVSS
VL: DIVMTQAAFSNPVTLGTSASISCRSSKSLLHSSGITYLYWYLQKPGQSPQLLIYQMSNLASGVPDRFSSSGSGTDFTLRISRVEAEDVGVYYCAQNLELPLTFGAGTKLELK
notes: also called Antibody 22
B2: humanized anti-CSP-1 antibody, Antibody Number 36 (Table 1) (antibody, human IgG1, V domains shown)
VH: EVQLVESGGGLVQPGGSLRLSCAASGFTFSRYGMSWVRQAPGKRLEWVATISIGGTYTYYPDSMKGRFTISRDNSKNTLYLQMNSLRAEDTAMYYCARRGYGNYSYYGMDYWGQGTLVTVSS
VL: DIVMTQSALSNPVTLGQSASISCRSSKSLLHSNGITYLYWYLQKPGQSPQLLIYQMSNRASGVPDRFSSSGSGTDFTLKISRVEAEDVGVYYCAQNLELPLTFGQGTKLEIK
notes: also called Antibody 36
B3: humanized anti-CSP-1 antibody, Antibody Number 38 (Table 1) (antibody, human IgG1, V domains shown)
VH: EVQLVESGGGLVQPGGSLRLSCAASGFTFSRYGMSWVRQAPGKGLEWVATISIGGTYTYYPDSMKGRFTISRDNSKNTLYLQMNSLRAEDTAVYYCARRGYGNYSYYGMDYWGQGTLVTVSS
VL: DIVMTQSALSNPVTLGQSASISCRSSKSLLHSNGITYLYWYLQKPGQSPQLLIYQMSNRASGVPDRFSSSGSGTDFTLKISRVEAEDVGVYYCAQNLELPLTFGQGTKLEIK
notes: also called Antibody 38
B4: humanized anti-CSP-1 antibody, Antibody Number 37 (Table 1) (antibody, human IgG1, V domains shown)
VH: EVQLVESGGGLVQPGGSLRLSCAASGFTFSRYGMSWVRQAPGKRLEWVATISIGGTYTYYPDSMKGRFTISRDNSKNTLYLQMNSLRAEDTAMYYCARRGYGNYSYYGMDYWGQGTLVTVSS
VL: DIVMTQSALSLPVTLGQSASISCRSSKSLLHSNGITYLYWYLQKPGQSPQLLIYQMSNRASGVPDRFSSSGSGTDFTLKISRVEAEDVGVYYCAQNLELPLTFGQGTKLEIK
notes: also called Antibody 37
B5: humanized anti-CSP-1 antibody, Antibody Number 35 (Table 1) (antibody, human IgG1, V domains shown)
VH: EVQLVESGGEVVKPGASLKLSCKASGFTFSRYGMSWVRQAPGQRLEWVATISIGGTYTYYPDSMKGRFTITRDNSTNTLYLEMSSLRSEDTAMYYCARRGYGNYSYYGMDYWGQGTLVTVSS
VL: DIVMTQSALSNPVTLGQSASISCRSSKSLLHSNGITYLYWYLQKPGQSPQLLIYQMSNRASGVPDRFSSSGSGTDFTLKISRVEAEDVGVYYCAQNLELPLTFGQGTKLEIK
notes: also called Antibody 35
B6: humanized anti-CSP-1 antibody, Antibody Number 30 (Table 1) (antibody, human IgG1, V domains shown)
VH: EVQLVESGGEVVKPGASLKLSCKASGFTFSRYGMSWVRQAPGQRLEWVATISIGGTYTYYPDSMKGRFTITRDNSTNTLYLEMSSLRSEDTAMYYCARRGYGNYSYYGMDYWGQGTLVTVSS
VL: DIVMTQAAFSNPVTLGTSASISCRSSKSLLHSNGITYLYWYLQKPGQSPQLLIYQMSNLASGVPDRFSSSGSGTDFTLRISRVEAEDVGVYYCAQNLELPLTFGAGTKLELK
notes: also called Antibody 30
B7: humanized anti-CSP-1 antibody, Antibody Number 39 (Table 1) (antibody, human IgG1, V domains shown)
VH: EVQLVESGGGLVQPGGSLRLSCAASGFTFSRYGMSWVRQAPGKGLEWVATISIGGTYTYYPDSMKGRFTISRDNSKNTLYLQMNSLRAEDTAVYYCARRGYGNYSYYGMDYWGQGTLVTVSS
VL: DIVMTQSALSLPVTLGQSASISCRSSKSLLHSNGITYLYWYLQKPGQSPQLLIYQMSNRASGVPDRFSSSGSGTDFTLKISRVEAEDVGVYYCAQNLELPLTFGQGTKLEIK
notes: also called Antibody 39
B8: humanized anti-CSP-1 antibody, Antibody Number 33 (Table 1) (antibody, human IgG1, V domains shown)
VH: EVQLVESGGDLVKPGGSLKLSCAASGFTFSRYGMSWVRQTPDKRLEWVATISIGGTYTYYPDSMKGRFTISRDNAKNTLYLQMSSLKSEDTAMYYCARRGYGNYSYYGMDYWGQGTSVTVSS
VL: DIVMTQSALSNPVTLGQSASISCRSSKSLLHSNGITYLYWYLQKPGQSPQLLIYQMSNRASGVPDRFSSSGSGTDFTLKISRVEAEDVGVYYCAQNLELPLTFGQGTKLEIK
notes: also called Antibody 33
B9: humanized anti-CSP-1 antibody, Antibody Number 25 (Table 1) (antibody, human IgG1, V domains shown)
VH: EVQLVESGGDLVKPGGSLKLSCAASGFTFSRYGMSWVRQTPDKRLEWVATISIGGTYTYYPDSMKGRFTISRDNAKNTLYLQMSSLKSEDTAMYYCARRGYGNYSYYGMDYWGQGTSVTVSS
VL: DIVMTQAAFSNPVTLGTSASISCRSSKSLLHSQGITYLYWYLQKPGQSPQLLIYQMSNLASGVPDRFSSSGSGTDFTLRISRVEAEDVGVYYCAQNLELPLTFGAGTKLELK
notes: also called Antibody 25
B10: humanized anti-CSP-1 antibody, Antibody Number 31 (Table 1) (antibody, human IgG1, V domains shown)
VH: EVQLVESGGGLVQPGGSLRLSCAASGFTFSRYGMSWVRQAPGKRLEWVATISIGGTYTYYPDSMKGRFTISRDNSKNTLYLQMNSLRAEDTAMYYCARRGYGNYSYYGMDYWGQGTLVTVSS
VL: DIVMTQAAFSNPVTLGTSASISCRSSKSLLHSNGITYLYWYLQKPGQSPQLLIYQMSNLASGVPDRFSSSGSGTDFTLRISRVEAEDVGVYYCAQNLELPLTFGAGTKLELK
notes: also called Antibody 31
B11: humanized anti-CSP-1 antibody, Antibody Number 32 (Table 1) (antibody, human IgG1, V domains shown)
VH: EVQLVESGGGLVQPGGSLRLSCAASGFTFSRYGMSWVRQAPGKGLEWVATISIGGTYTYYPDSMKGRFTISRDNSKNTLYLQMNSLRAEDTAVYYCARRGYGNYSYYGMDYWGQGTLVTVSS
VL: DIVMTQAAFSNPVTLGTSASISCRSSKSLLHSNGITYLYWYLQKPGQSPQLLIYQMSNLASGVPDRFSSSGSGTDFTLRISRVEAEDVGVYYCAQNLELPLTFGAGTKLELK
notes: also called Antibody 32
B12: humanized anti-CSP-1 antibody, Antibody Number 29 (Table 1) (antibody, human IgG1, V domains shown)
VH: EVQLVESGGDLVKPGGSLKLSCAASGFTFSRYGMSWVRQTPDKRLEWVATISIGGTYTYYPDSMKGRFTISRDNAKNTLYLQMSSLKSEDTAMYYCARRGYGNYSYYGMDYWGQGTSVTVSS
VL: DIVMTQAAFSNPVTLGTSASISCRSSKSLLHSNGITYLYWYLQKPGQSPQLLIYQISNLASGVPDRFSSSGSGTDFTLRISRVEAEDVGVYYCAQNLELPLTFGAGTKLELK
notes: also called Antibody 29
B13: humanized anti-CSP-1 antibody, Antibody Number 23 (Table 1) (antibody, human IgG1, V domains shown)
VH: EVQLVESGGDLVKPGGSLKLSCAASGFTFSRYGMSWVRQTPDKRLEWVATISIGGTYTYYPDSMKGRFTISRDNAKNTLYLQMSSLKSEDTAMYYCARRGYGNYSYYGMDYWGQGTSVTVSS
VL: DIVMTQAAFSNPVTLGTSASISCRSSKSLLHSVGITYLYWYLQKPGQSPQLLIYQMSNLASGVPDRFSSSGSGTDFTLRISRVEAEDVGVYYCAQNLELPLTFGAGTKLELK
notes: also called Antibody 23
B14: humanized anti-CSP-1 antibody, Antibody Number 27 (Table 1) (antibody, human IgG1, V domains shown)
VH: EVQLVESGGDLVKPGGSLKLSCAASGFTFSRYGMSWVRQTPDKRLEWVATISIGGTYTYYPDSMKGRFTISRDNAKNTLYLQMSSLKSEDTAMYYCARRGYGNYSYYGMDYWGQGTSVTVSS
VL: DIVMTQAAFSNPVTLGTSASISCRSSKSLLHSNGITYLYWYLQKPGQSPQLLIYQVSNLASGVPDRFSSSGSGTDFTLRISRVEAEDVGVYYCAQNLELPLTFGAGTKLELK
notes: also called Antibody 27
B15: humanized anti-CSP-1 antibody, Antibody Number 28 (Table 1) (antibody, human IgG1, V domains shown)
VH: EVQLVESGGDLVKPGGSLKLSCAASGFTFSRYGMSWVRQTPDKRLEWVATISIGGTYTYYPDSMKGRFTISRDNAKNTLYLQMSSLKSEDTAMYYCARRGYGNYSYYGMDYWGQGTSVTVSS
VL: DIVMTQAAFSNPVTLGTSASISCRSSKSLLHSNGITYLYWYLQKPGQSPQLLIYQLSNLASGVPDRFSSSGSGTDFTLRISRVEAEDVGVYYCAQNLELPLTFGAGTKLELK
notes: also called Antibody 28
B16: humanized anti-CSP-1 antibody, Antibody Number 26 (Table 1) (antibody, human IgG1, V domains shown)
VH: EVQLVESGGDLVKPGGSLKLSCAASGFTFSRYGMSWVRQTPDKRLEWVATISIGGTYTYYPDSMKGRFTISRDNAKNTLYLQMSSLKSEDTAMYYCARRGYGNYSYYGMDYWGQGTSVTVSS
VL: DIVMTQAAFSNPVTLGTSASISCRSSKSLLHSEGITYLYWYLQKPGQSPQLLIYQMSNLASGVPDRFSSSGSGTDFTLRISRVEAEDVGVYYCAQNLELPLTFGAGTKLELK
notes: also called Antibody 26
B17: humanized anti-CSP-1 antibody, Antibody Number 34 (Table 1) (antibody, human IgG1, V domains shown)
VH: EVQLVESGGDLVKPGGSLKLSCAASGFTFSRYGMSWVRQTPDKRLEWVATISIGGTYTYYPDSMKGRFTISRDNAKNTLYLQMSSLKSEDTAMYYCARRGYGNYSYYGMDYWGQGTSVTVSS
VL: DIVMTQSALSLPVTLGQSASISCRSSKSLLHSNGITYLYWYLQKPGQSPQLLIYQMSNRASGVPDRFSSSGSGTDFTLKISRVEAEDVGVYYCAQNLELPLTFGQGTKLEIK
notes: also called Antibody 34
B18: humanized anti-CSP-1 antibody, Antibody Number 24 (Table 1) (antibody, human IgG1, V domains shown)
VH: EVQLVESGGDLVKPGGSLKLSCAASGFTFSRYGMSWVRQTPDKRLEWVATISIGGTYTYYPDSMKGRFTISRDNAKNTLYLQMSSLKSEDTAMYYCARRGYGNYSYYGMDYWGQGTSVTVSS
VL: DIVMTQAAFSNPVTLGTSASISCRSSKSLLHSDGITYLYWYLQKPGQSPQLLIYQMSNLASGVPDRFSSSGSGTDFTLRISRVEAEDVGVYYCAQNLELPLTFGAGTKLELK
notes: also called Antibody 24

Target: T1, Sec8-His (section 8 (Sec8), an …)
Assay: BLI (Octet), single shot: antibody on anti-human IgG tips, 24 nM Sec8-His
Method: After humanization, the antibodies were tested for their capability to bind to an antigenic region of CSP-1 called section 8 (Sec8). Antigen binding was assessed by single-shot Octet analysis. Antibodies were loaded onto anti-human IgG tips, and the loaded tips were dipped into wells containing the Sec8-His antigen. Scouting experiments were used to determine ideal conditions for loading (10 minute incubation in 1 μg/mL IgG) and antigen binding (5 minute incubation in 24 nM Sec8-His, followed by a 5 minute dissociation step in buffer). Two negative controls were included with each experiment. First, a tip was loaded with irrelevant IgG dipped into 24 nM Sec8-His to control for non-specific interactions between the tip and the antigen. Next, tips loaded with humanized 1D7 variants were dipped into 24 nM GST-His to control for off-target binding of the antibody (a significant risk if a given variant is destabilized and/or exposes significant hydrophobic surface). The data from the irrelevant IgG control were subtracted from the data obtained with the […]-loaded tips. The mean and standard deviation of the signal change values for the GST-His control wells were used to calculate a threshold for positive binding (mean+3 standard deviations of the GST-His signal). Variants that were below this threshold are considered to have no specific binding to Sec8.

**Q.** Does B1 bind?
**A.** Result: binds

**Q.** Does B2 bind?
**A.** Result: binds

**Q.** Does B3 bind?
**A.** Result: binds

**Q.** Does B4 bind?
**A.** Result: binds

**Q.** Does B5 bind?
**A.** Result: binds

**Q.** Does B6 bind?
**A.** Result: binds

**Q.** Does B7 bind?
**A.** Result: binds

**Q.** Does B8 bind?
**A.** Result: binds

**Q.** Does B9 bind?
**A.** Result: binds

**Q.** Does B10 bind?
**A.** Result: binds

**Q.** Does B11 bind?
**A.** Result: binds

**Q.** Does B12 bind?
**A.** Result: binds

**Q.** Does B13 bind?
**A.** Result: binds

**Q.** Does B14 bind?
**A.** Result: binds

**Q.** Does B15 bind?
**A.** Result: binds

**Q.** Does B16 bind?
**A.** Result: binds

**Q.** Does B17 bind?
**A.** Result: binds

**Q.** Does B18 bind?
**A.** Result: binds
